Test [1] concerns MET. Put plainly: MET phosphorylation in SHEP neuroblastoma cells. The class given is cell-based, human. The conditions noted are these: GDNF 0.1 pg/ml; SHEP cells express GFRα1 but not RET; data not shown. On the procedure:
FIG. 7B: SHEP cells were grown with GDNF (10 ng/ml (lanes 2-4) or 5 pg/ml (lanes 5-7)) or HGF (10 ng/ml (lanes 8-9)) in the presence of PP2 (1 μM (lanes 3 and 6) and 10 μM (lanes 4 and 7)). To exclude a possible cytotoxic effect of the solvent, DMSO was added to the controls. […] The numbers below the lane indicate the fold of induction of MET tyrosine kinase. The results are representative of three independent experiments.
(§1) To detect MET activation, GFRα1- and RET/GFRα1-expressing MDCK or SHEP cells were starved overnight in MEM or RPMI 1640 with 1% FCS, respectively, and in serum-free medium for 2 h prior the induction. After 15 min incubation at 37° C. with GDNF (at indicated concentrations) or with 50 ng/ml HGF, cells were lysed as described. Cleared cell lysates were incubated with anti-MET antibodies (Santa Cruz Biotechnologies, Inc.) overnight at 4° C. Immunoprecipitates were collected with protein A-SEPHAROSE (Amersham Pharmacia Biotech), washed, separated by SDS-PAGE and transferred to HYBOND-ECL membranes. Membranes were immunoblotted with anti-phospho-tyrosine antibodies (Upstate Group Inc.) or anti-MET antibodies.
(§2) For all experiments, densitometry and quantifications were performed using TINA 2.0 program (Raytest, Straubenhardt, Germany).
(§3) For the inhibition of MET, and Src activation, SHEP or GFRα1- and RET/GFRα1-expressing MDCK cells were starved as described above. 1 or […] of the inhibitor PP2 (Calbiochem) was added 30 min before induction by GDNF or HGF. DMSO (dimethyl sulfoxide) was added to the positive controls together with GDNF or HGF.

A further test concerns wild-type MDCK cells. Put plainly: Branching tubule formation assay in 3-D collagen gel. The class given is cell-based, dog. The procedure: (§4) From the total amount of cysts in the field, the percentage of cysts with long branches was calculated. Only branches with lengths of more than two cyst diameters were counted.
(§5) Trypsinized cells were mixed 1:3 with collagen type I solution and plated. MEM with 10% FCS was overlaid on the gels with or without GDNF (Cephalon Inc. or R&D Systems, Inc.) or 50 ng/ml HGF. Cells in collagen were cultured for 3 days; GDNF-containing medium was changed daily. For quantification, cells were cultured for 3 days, fixed by 3% glutaraldehyde in PBS and counted under a light microscope.
(§6) To avoid the effect of possible contamination of GDNF preparation, recombinant GDNF from two different sources were tested. One tested GDNF was expressed in baculovirus-infected insect cells (Cephalon Inc.), the other was expressed in mouse myeloma cell line NSO (R&D Systems, Inc.).

Test [2] has as its system MET. Put plainly: MET phosphorylation in MDCK cells (immunoprecipitation, Western blotting). The class given is cell-based, dog. On the procedure: as §1
Alternatively, 30 μg of protein was incubated overnight at 4° C. with 10 μl Immobilized Phospho-Tyrosine Monoclonal Antibodies (Cell Signalling, NEB). Immunocomplexes were washed and analysed as described.
as §2, §3

Test [3] deals with RET/GFRα1-expressing MDCK cells. Put plainly: Boyden chamber cell migration and chemotaxis assay. It counts as cell-based, dog. The procedure:
(§7) FIG. 3A: In Boyden chamber chemotaxis assays, mock-transfected, GFRα1-expressing and RET/GFRα1-expressing cells were exposed to GDNF, and wild-type MDCK to HGF. The number of cells was counted as described in Materials and Methods. +/+=GDNF at 100 ng/ml or HGF at 50 ng/ml was added to both chambers to assay chemokinesis. Each result represents the mean±SEM (n=3). For each case, p<0.001.
(§8) 5×10^4 MDCK cells (GFRα1-, RET/GFRα1-expressing and mock transfected) were suspended in 300 µl of MEM with 10% FCS and seeded into 24-well cell culture inserts with the filters (Boyden chambers), pore size 8 μm (Falcon). The assay was done as described (Tang et al., 1998). Briefly, GDNF or HGF was added to the upper, or both the upper and lower chambers at the marked concentrations. After 48 h incubation, non-migrated cells on the upper surface of the filters were scrapped. Membranes with the cells on the lower surface were washed with PBS, fixed by 3% glutaraldehyde in PBS, stained with May-Grünwald Giemsa (MGG) solution, dehydrated and mounted on the slides. Cells in eight fields of each membrane were counted under the light microscope (Magnification=100×). The average and standard error of the mean were calculated. Statistical significance of the differences was estimated by t-test.
(§9) Guided migration of cells towards a chemoattractant is referred to as chemotaxis, whereas enhanced cellular motility is called chemokinesis. Chemotaxis can be tested in the Boyden dual chamber assay by adding the test substance to the lower chamber only, and chemokinesis by adding test substance to both upper and lower chambers. […] Similarly, the chemotactic migration of RET/GFRα1co-expressing MDCK cells is stimulated by GDNF in the presence of soluble GFRα1 (Tang et al., 1998).

Test [4] concerns GFRα1-expressing, RET-deficient MDCK cells. Put plainly: Boyden chamber cell migration and chemotaxis assay. It counts as cell-based, dog. The procedure:
as §7, §8, §9

Test [5] deals with RET/GFRα1-expressing MDCK cells. Put plainly: Branching tubule formation assay in 3-D collagen gel. The class given is cell-based, dog. On the procedure:
as §4
(§10) FIG. 2C: Dose-dependence of GDNF-induced branching of GFRα1- and RET/GFRα1-expressing MDCK cells. GDNF concentrations are per ml (x-axis). Results are reported as fold of branching cysts count over the non-induced control. Means±standard errors of the mean of five to eight counted fields are shown. The results are representative of five (A and B) and three (C) independent experiments, p<0.001.
as §5, §6

The test system of test [6] is GFRα1-expressing MDCK cells. The test is described as above. The class given is cell-based, dog. The procedure:
as §4, §10, §5, §6

Where [7] appears, read: ligand 100 ng/ml, 3-D collagen gel.
Setting [8] is: GDNF 100 ng/ml added to both chambers.

Some results are limits rather than exact numbers.

B1: GDNF: recombinant glial cell line-derived neurotrophic factor from Cephalon Inc. (baculovirus-infected insect cells) or R&D Systems, Inc. (mouse myeloma NSO) (protein, UniProt P39905 78-211, looked up)
Glial cell line-derived …: SPDKQMAVLPRRERNRQAAAANPENSRGKGRRGQRGKNRGCVLTAIHLNVTDLGLGYETKEELIFRYCSGSCDAAETTYDKILKNLSRNRRLVSDKVGQACCRPIAFDDDLSFLDDNLVYHILRKHSAKRCGCI
On to B1, for which the MET phosphorylation entry in the test with MET [1] was “induced rapid MET phosphorylation”; in the test with MET [2] (GFRα1- and Ret/GFRα1-expressing MDCK cells), “evoked MET phosphorylation”; with MET [2] (wild type MDCK cells), “but not in wild type MDCK cells”. Besides, the branching tubule formation entry with wild-type MDCK cells (setting [7]) is given as “did not”; in the test on wild-type MDCK cells (mock-transfected MDCK cells used as controls), “did not from branching tubules”; in test [5] (setting [7]) it was “formed branching tubules”; in test [6] (setting [7]), “formed branching tubules”. In addition, the “GDNF concentration at which MET activation reached saturation” value in the test with MET [2] (GFRα1- and Ret/GFRα1-expressing MDCK cells, 15 min) came to 0.1 pg/mL. The “time to MET activation” value in the test on MET [2] (GFRα1-expressing and RET/GFRα1-expressing MDCK cells) was not above 15 min. In addition, in the test on MET [2] (GFRα1-expressing and RET/GFRα1-expressing MDCK cells, data not shown), the “duration of MET activation” value is “at least 2 hours”. For the same molecule, the “concentration at which MET is saturated” value with MET [2] (GFRα1-expressing and RET/GFRα1-expressing MDCK cells, printed as 4 fM (0.1 pg/ml)) is reported as 4 fM. In addition, in test [3] (Boyden chamber, 48 h), the chemotactic migration result is on record as “induced chemotactic migration”. In addition, the “migration with ligand in both chambers compared to the maximal chemotactic response (chemokinesis)” value in test [3] (setting [8]) is listed as “reduced threefold”. The chemotactic response result in test [4] (Boyden chamber, 48 h) is listed as “did not demonstrate a chemotactic response”. In addition, the “migration with ligand in both chambers (chemokinesis)” value in test [4] (setting [8]) was “only slightly reduced”. Moreover, the “GDNF concentration at which cells started to branch” value in test [5] (cells co-expressing RET and GFRα1, dose-response FIG. 2C) was found to be 0.1 ng/mL. Also, in test [6] (cells expressing GFRα1 but not RET, dose-response FIG. 2C), the “GDNF concentration that evoked tubulogenesis” value was 0.1 pg/ml. For the same molecule, the branching tubulogenesis entry in test [6] (wild-type MDCK transduced with an adenovirus expressing GFRα1, data not shown) was “induced branching tubulogenesis”.

The values above are taken from patent US20080070264A1, “Intracellular Signaling-Induced Ret-Independent Gdnf Receptor-Effected Morphological Changes” (JPMORGAN CHASE BANK N.A., priority 2003, published 2008).
